Test results as given in patent publication US20220009986A1 (AMBRX, published 2022).
Where “and” joins values, the source holds several entries; their conditions need not be identical. Equal entries are not always repeated. Where two headings read alike, the source gives them in different places.

Key:
Test in all cases: cell-based or functional assay
[1] = target: T1, endogenous IL-10 receptors of MC/9 cells (mouse mast cell line) (mouse, UniProt Q61727 17-575)
T1 sequence (looked up): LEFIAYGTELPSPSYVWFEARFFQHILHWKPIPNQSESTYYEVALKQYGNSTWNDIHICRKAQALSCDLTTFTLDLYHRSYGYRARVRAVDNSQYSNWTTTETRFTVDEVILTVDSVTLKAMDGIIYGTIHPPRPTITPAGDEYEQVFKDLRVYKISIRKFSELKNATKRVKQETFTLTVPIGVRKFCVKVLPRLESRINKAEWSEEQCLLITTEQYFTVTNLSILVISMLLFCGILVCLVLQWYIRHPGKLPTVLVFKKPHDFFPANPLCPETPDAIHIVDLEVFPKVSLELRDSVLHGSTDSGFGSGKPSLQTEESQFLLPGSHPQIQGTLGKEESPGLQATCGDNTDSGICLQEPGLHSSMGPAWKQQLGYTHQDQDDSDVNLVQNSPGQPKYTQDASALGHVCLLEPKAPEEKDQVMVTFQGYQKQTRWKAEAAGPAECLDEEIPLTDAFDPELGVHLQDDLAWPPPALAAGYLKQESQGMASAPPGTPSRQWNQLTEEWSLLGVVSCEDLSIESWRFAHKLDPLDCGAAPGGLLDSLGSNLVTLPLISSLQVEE

[2] = target: T1, endogenous IL-10 receptors of MC/9 …; remark: listed apart in the source
[3] = target: T1, endogenous IL-10 receptors of MC/9 …; remark: listed apart in the source
[4] = target: T1, endogenous IL-10 receptors of MC/9 …; remark: listed apart in the source

B1: IL-10 wild type (mature wild type human IL-10) (ligand)
chain: SPGQGTQSENSCTHFPGNLPNMLRDLRDAFSRVKTFFQMKDQLDNLLLKESLLEDFKGYLGCQALSEMIQFYLEEVMPQAENQDPDIKAHVNSLGENLKTLRLRLRRCHRFLPCENKSKAVEQVKNAFNKLQEKGIYKAMSEFDIFINYIEAYMTMKIRN
EC50 (ng/ml), MC/9 proliferation assay [1]: 0.42 ng/mL
EC50 (ng/ml), MC/9 proliferation assay [2]: 0.303 ng/mL and 0.105 ng/mL
EC50 (ng/ml), MC/9 proliferation assay [3]: 0.14 ng/mL
EC50 (ng/ml), MC/9 proliferation assay [4]: 1 ng/mL

B2: 5K PEG-hIL-10 wt (ligand)
chain: SPGQGTQSENSCTHFPGNLPNMLRDLRDAFSRVKTFFQMKDQLDNLLLKESLLEDFKGYLGCQALSEMIQFYLEEVMPQAENQDPDIKAHVNSLGENLKTLRLRLRRCHRFLPCENKSKAVEQVKNAFNKLQEKGIYKAMSEFDIFINYIEAYMTMKIRN
modifications: N-terminal PEGylation with 5K PEG
EC50 (ng/ml), MC/9 proliferation assay [3]: 4.76 ng/mL

B3: 10K PEG-hIL-10 wt (ligand)
chain: SPGQGTQSENSCTHFPGNLPNMLRDLRDAFSRVKTFFQMKDQLDNLLLKESLLEDFKGYLGCQALSEMIQFYLEEVMPQAENQDPDIKAHVNSLGENLKTLRLRLRRCHRFLPCENKSKAVEQVKNAFNKLQEKGIYKAMSEFDIFINYIEAYMTMKIRN
modifications: N-terminal PEGylation with 10K PEG
EC50 (ng/ml), MC/9 proliferation assay [3]: 21.8 ng/mL
